# Experimental data taken from PMC4258231.
# Molecular target: typhoid toxin B subunit PltB (Salmonella Typhi) (UniProt Q8Z6A3)
# Assay: crystal structure
substance,measurement,value
typhoid toxin B subunit PltB (from UniProt Q8Z6A3 1-137) (natural protein),stoichiometry N,5
